IntAct's records for PubMed 18273061

B1: Protein sprouty homolog 2 (Homo sapiens), O43597 (parent)
chain: MEARAQSGNGSQPLLQTPRDGGRQRGEPDPRDALTQQVHVLSLDQIRAIRNTNEYTEGPTVVPRPGLKPAPRPSTQHKHERLHGLPEHRQPPRLQHSQVHSSARAPLSRSISTVSSGSRSSTRTSTSSSSSEQRLLGSSFSSGPVADGIIRVQPKSELKPGELKPLSKEDLGLHAYRCEDCGKCKCKECTYPRPLPSDWICDKQCLCSAQNVIDYGTCVCCVKGLFYHCSNDDEDNCADNPCSCSQSHCCTRWSAMGVMSLFLPCLWCYLPAKGCLKLCQGCYDRVNRPGCRCKNSNTVCCKVPTVPPRNFEKPT
B2: Vascular endothelial growth factor receptor 1 (Homo sapiens), P17948 (parent)
chain: MVSYWDTGVLLCALLSCLLLTGSSSGSKLKDPELSLKGTQHIMQAGQTLHLQCRGEAAHKWSLPEMVSKESERLSITKSACGRNGKQFCSTLTLNTAQANHTGFYSCKYLAVPTSKKKETESAIYIFISDTGRPFVEMYSEIPEIIHMTEGRELVIPCRVTSPNITVTLKKFPLDTLIPDGKRIIWDSRKGFIISNATYKEIGLLTCEATVNGHLYKTNYLTHRQTNTIIDVQISTPRPVKLLRGHTLVLNCTATTPLNTRVQMTWSYPDEKNKRASVRRRIDQSNSHANIFYSVLTIDKMQNKDKGLYTCRVRSGPSFKSVNTSVHIYDKAFITVKHRKQQVLETVAGKRSYRLSMKVKAFPSPEVVWLKDGLPATEKSARYLTRGYSLIIKDVTEEDAGNYTILLSIKQSNVFKNLTATLIVNVKPQIYEKAVSSFPDPALYPLGSRQILTCTAYGIPQPTIKWFWHPCNHNHSEARCDFCSNNEESFILDADSNMGNRIESITQRMAIIEGKNKMASTLVVADSRISGIYICIASNKVGTVGRNISFYITDVPNGFHVNLEKMPTEGEDLKLSCTVNKFLYRDVTWILLRTVNNRTMHYSISKQKMAITKEHSITLNLTIMNVSLQDSGTYACRARNVYTGEEILQKKEITIRDQEAPYLLRNLSDHTVAISSSTTLDCHANGVPEPQITWFKNNHKIQQEPGIILGPGSSTLFIERVTEEDEGVYHCKATNQKGSVESSAYLTVQGTSDKSNLELITLTCTCVAATLFWLLLTLFIRKMKRSSSEIKTDYLSIIMDPDEVPLDEQCERLPYDASKWEFARERLKLGKSLGRGAFGKVVQASAFGIKKSPTCRTVAVKMLKEGATASEYKALMTELKILTHIGHHLNVVNLLGACTKQGGPLMVIVEYCKYGNLSNYLKSKRDLFFLNKDAALHMEPKKEKMEPGLEQGKKPRLDSVTSSESFASSGFQEDKSLSDVEEEEDSDGFYKEPITMEDLISYSFQVARGMEFLSSRKCIHRDLAARNILLSENNVVKICDFGLARDIYKNPDYVRKGDTRLPLKWMAPESIFDKIYSTKSDVWSYGVLLWEIFSLGGSPYPGVQMDEDFCSRLREGMRMRAPEYSTPEIYQIMLDCWHRDPKERPRFAELVEKLGDLLQANVQQDGKDYIPINAILTGNSGFTYSTPAFSEDFFKESISAPKFNSGSSDDVRYVNAFKFMSLERIKTFEELLPNATSMFDDYQGDSSTLLASPMLKRFTWTDSKPKASLKIDLRVTSKSKESGLSDVSRPSFCHSSCGHVSEGKRRFTYDHAELERKIACCSPPPDYNSVVLYSTPPI

Variants of: B1
Conditions: with cbl_human CBL

Row | Variant | effect of a mutation on the interaction
1 | N53A | disrupting interaction

Variants of: B1
Conditions: with cbl_human CBL
Remark: another data set of the same source

Row | Variant | effect of a mutation on the interaction
2 | Y55F | disrupting interaction

Variants of: B1
Conditions: with cbl_human CBL
Remark: another data set of the same source

Row | Variant | effect of a mutation on the interaction
3 | P59A | decreasing interaction

Variants of: B2
Conditions: with cbl_human CBL

Row | Variant | effect of a mutation on the interaction
4 | V1331N | increasing interaction

Variants of: B2
Conditions: with cbl_human CBL
Remark: another data set of the same source

Row | Variant | effect of a mutation on the interaction
5 | L1332R | increasing interaction
